From patent US12679878B2, “CRF2 receptor agonists and their use in therapy” (SANOFI, priority 2020, dated 2026) come the findings set out here.

Starred links: 1 amine or outer side, 2 acyl side, 3 side chain; linkers in the order of their positions; H or OH if unused. Non-standard residues stand in square brackets, D forms with d. Groups on a side chain read outwards from the residue. No end group written: not given here. *: point of attachment. C16 diacid = O=C(O)CCCCCCCCCCCCCCC(=O)*; γGlu = O=C(O)[C@H](CCC(=O)[*:2])N[*:1]; AEEA = NCCOCCOCC(=O)O; Aib = CC(C)(N)C(=O)O

Common to all, as to experiment: cell-based or functional assay
For experiment [1], the target named is T1, CRF1R receptor (anti-target) (UniProt P34998 24-415, limits assumed).
T1 sequence (looked up): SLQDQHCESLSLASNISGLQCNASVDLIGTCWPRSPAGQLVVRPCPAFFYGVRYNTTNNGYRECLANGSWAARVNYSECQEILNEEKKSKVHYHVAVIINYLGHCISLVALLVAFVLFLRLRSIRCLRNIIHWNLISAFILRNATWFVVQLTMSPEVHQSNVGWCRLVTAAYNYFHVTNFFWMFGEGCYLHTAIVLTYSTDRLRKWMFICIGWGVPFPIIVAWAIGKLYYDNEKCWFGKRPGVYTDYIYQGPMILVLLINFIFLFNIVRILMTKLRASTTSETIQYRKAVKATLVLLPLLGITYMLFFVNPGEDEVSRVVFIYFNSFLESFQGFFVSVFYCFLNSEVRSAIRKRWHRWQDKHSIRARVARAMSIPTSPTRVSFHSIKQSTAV

Experiment [2] has as its target human corticotropin-releasing factor 2α (CRF2α receptor) (human), Q13324.
For experiment [3], the target named is T2, CRF1R receptor (anti-target) (UniProt P34998 24-415, limits assumed).
T2 sequence (looked up): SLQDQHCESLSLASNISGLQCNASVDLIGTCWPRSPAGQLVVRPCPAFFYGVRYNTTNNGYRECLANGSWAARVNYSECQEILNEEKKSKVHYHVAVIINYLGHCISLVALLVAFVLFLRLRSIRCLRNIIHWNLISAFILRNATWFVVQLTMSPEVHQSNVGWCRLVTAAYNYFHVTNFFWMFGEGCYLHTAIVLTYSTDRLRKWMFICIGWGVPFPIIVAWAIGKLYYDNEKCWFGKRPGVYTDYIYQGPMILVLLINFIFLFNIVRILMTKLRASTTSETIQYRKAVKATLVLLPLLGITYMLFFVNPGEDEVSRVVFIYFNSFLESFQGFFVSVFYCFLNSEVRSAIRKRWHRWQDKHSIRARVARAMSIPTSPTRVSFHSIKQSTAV
The source holds these as a separate data set.

Chain of human corticotropin-releasing factor 2α (CRF2α receptor) (human), Q13324 (Q13324 20-411): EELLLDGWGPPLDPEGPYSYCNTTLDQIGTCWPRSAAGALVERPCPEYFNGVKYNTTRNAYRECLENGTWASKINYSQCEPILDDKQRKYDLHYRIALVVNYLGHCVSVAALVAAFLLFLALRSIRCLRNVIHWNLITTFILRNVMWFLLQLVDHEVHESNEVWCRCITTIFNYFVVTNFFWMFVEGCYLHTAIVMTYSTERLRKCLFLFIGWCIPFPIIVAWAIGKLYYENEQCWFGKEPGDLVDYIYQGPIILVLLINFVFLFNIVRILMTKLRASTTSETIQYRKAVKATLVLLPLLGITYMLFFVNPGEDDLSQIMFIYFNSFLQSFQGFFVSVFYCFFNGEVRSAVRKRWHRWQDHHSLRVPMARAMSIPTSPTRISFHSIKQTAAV

B1: peptide of SEQ ID NO: 203 (peptide)
peptide: IVLSLD[dV]PIGLK([AEEA-AEEA-γGlu-γGlu-C16 diacid])QILLKQERQKK[Aib]REQAETNKQILAQV-NH2
modifications: N-terminus assumed
SMILES: CC[C@H](C)[C@H](N)C(=O)N[C@H](C(=O)N[C@@H](CC(C)C)C(=O)N[C@@H](CO)C(=O)N[C@@H](CC(C)C)C(=O)N[C@@H](CC(=O)O)C(=O)N[C@@H](C(=O)N1CCC[C@H]1C(=O)N[C@H](C(=O)NCC(=O)N[C@@H](CC(C)C)C(=O)N[C@@H](CCCCNC(=O)COCCOCCNC(=O)COCCOCCNC(=O)CC[C@H](NC(=O)CC[C@H](NC(=O)CCCCCCCCCCCCCCC(=O)O)C(=O)O)C(=O)O)C(=O)N[C@@H](CCC(N)=O)C(=O)N[C@H](C(=O)N[C@@H](CC(C)C)C(=O)N[C@@H](CC(C)C)C(=O)N[C@@H](CCCCN)C(=O)N[C@@H](CCC(N)=O)C(=O)N[C@@H](CCC(=O)O)C(=O)N[C@@H](CCCNC(=N)N)C(=O)N[C@@H](CCC(N)=O)C(=O)N[C@@H](CCCCN)C(=O)N[C@@H](CCCCN)C(=O)NC(C)(C)C(=O)N[C@@H](CCCNC(=N)N)C(=O)N[C@@H](CCC(=O)O)C(=O)N[C@@H](CCC(N)=O)C(=O)N[C@@H](C)C(=O)N[C@@H](CCC(=O)O)C(=O)N[C@H](C(=O)N[C@@H](CC(N)=O)C(=O)N[C@@H](CCCCN)C(=O)N[C@@H](CCC(N)=O)C(=O)N[C@H](C(=O)N[C@@H](CC(C)C)C(=O)N[C@@H](C)C(=O)N[C@@H](CCC(N)=O)C(=O)N[C@H](C(N)=O)C(C)C)[C@@H](C)CC)[C@@H](C)O)[C@@H](C)CC)[C@@H](C)CC)C(C)C)C(C)C
Take B1: in experiment [1], the “EC50 [nM] 0% HSA (cAMP, HTRF)” value is greater than 100 nM and the “Emax (%) (100% = Sauvagine at 100 nM)” value was 4.7%. Moreover, in experiment [2], the EC50 [nM], 0% HSA (cAMP, HTRF) worked out at 4.7 nM.

B2: peptide of SEQ ID NO: 221 (peptide)
peptide: IVLSLD[dV]PTKLK([γGlu-C16 diacid])QKLLKQERQRKEREQAEKNARILARV-NH2
modifications: N-terminus assumed
SMILES: CC[C@H](C)[C@H](N)C(=O)N[C@H](C(=O)N[C@@H](CC(C)C)C(=O)N[C@@H](CO)C(=O)N[C@@H](CC(C)C)C(=O)N[C@@H](CC(=O)O)C(=O)N[C@@H](C(=O)N1CCC[C@H]1C(=O)N[C@H](C(=O)N[C@@H](CCCCN)C(=O)N[C@@H](CC(C)C)C(=O)N[C@@H](CCCCNC(=O)CC[C@H](NC(=O)CCCCCCCCCCCCCCC(=O)O)C(=O)O)C(=O)N[C@@H](CCC(N)=O)C(=O)N[C@@H](CCCCN)C(=O)N[C@@H](CC(C)C)C(=O)N[C@@H](CC(C)C)C(=O)N[C@@H](CCCCN)C(=O)N[C@@H](CCC(N)=O)C(=O)N[C@@H](CCC(=O)O)C(=O)N[C@@H](CCCNC(=N)N)C(=O)N[C@@H](CCC(N)=O)C(=O)N[C@@H](CCCNC(=N)N)C(=O)N[C@@H](CCCCN)C(=O)N[C@@H](CCC(=O)O)C(=O)N[C@@H](CCCNC(=N)N)C(=O)N[C@@H](CCC(=O)O)C(=O)N[C@@H](CCC(N)=O)C(=O)N[C@@H](C)C(=O)N[C@@H](CCC(=O)O)C(=O)N[C@@H](CCCCN)C(=O)N[C@@H](CC(N)=O)C(=O)N[C@@H](C)C(=O)N[C@@H](CCCNC(=N)N)C(=O)N[C@H](C(=O)N[C@@H](CC(C)C)C(=O)N[C@@H](C)C(=O)N[C@@H](CCCNC(=N)N)C(=O)N[C@H](C(N)=O)C(C)C)[C@@H](C)CC)[C@@H](C)O)C(C)C)C(C)C
In the case of B2, in experiment [1], the “EC50 [nM] 0% HSA (cAMP, HTRF)” value was greater than 100 nM and the “Emax (%) (100% = Sauvagine at 100 nM)” value amounted to 3.2%. Also, in experiment [2], the EC50 [nM], 0% HSA (cAMP, HTRF) stood at 2.71 nM.

B3: peptide of SEQ ID NO: 197 (peptide)
peptide: IVLSLD[dV]PIKLK([γGlu-C16 diacid])QILLKQARQK[Aib]QRAQAEKNKRILERV-NH2
modifications: N-terminus assumed
SMILES: CC[C@H](C)[C@H](N)C(=O)N[C@H](C(=O)N[C@@H](CC(C)C)C(=O)N[C@@H](CO)C(=O)N[C@@H](CC(C)C)C(=O)N[C@@H](CC(=O)O)C(=O)N[C@@H](C(=O)N1CCC[C@H]1C(=O)N[C@H](C(=O)N[C@@H](CCCCN)C(=O)N[C@@H](CC(C)C)C(=O)N[C@@H](CCCCNC(=O)CC[C@H](NC(=O)CCCCCCCCCCCCCCC(=O)O)C(=O)O)C(=O)N[C@@H](CCC(N)=O)C(=O)N[C@H](C(=O)N[C@@H](CC(C)C)C(=O)N[C@@H](CC(C)C)C(=O)N[C@@H](CCCCN)C(=O)N[C@@H](CCC(N)=O)C(=O)N[C@@H](C)C(=O)N[C@@H](CCCNC(=N)N)C(=O)N[C@@H](CCC(N)=O)C(=O)N[C@@H](CCCCN)C(=O)NC(C)(C)C(=O)N[C@@H](CCC(N)=O)C(=O)N[C@@H](CCCNC(=N)N)C(=O)N[C@@H](C)C(=O)N[C@@H](CCC(N)=O)C(=O)N[C@@H](C)C(=O)N[C@@H](CCC(=O)O)C(=O)N[C@@H](CCCCN)C(=O)N[C@@H](CC(N)=O)C(=O)N[C@@H](CCCCN)C(=O)N[C@@H](CCCNC(=N)N)C(=O)N[C@H](C(=O)N[C@@H](CC(C)C)C(=O)N[C@@H](CCC(=O)O)C(=O)N[C@@H](CCCNC(=N)N)C(=O)N[C@H](C(N)=O)C(C)C)[C@@H](C)CC)[C@@H](C)CC)[C@@H](C)CC)C(C)C)C(C)C
Turning to B3, in experiment [3], the “CRF1/CRF2 ratio (of EC50)” value was greater than 500 and the “CRF1 EC50 (cAMP, HTRF)” value is greater than 100 nM.

B4: peptide of SEQ ID NO: 222 (peptide)
peptide: IVLSLD[dV]PTKLK([γGlu-C16 diacid])QKLLKQERQRKEREQAEKNVRILERV-NH2
modifications: N-terminus assumed
SMILES: CC[C@H](C)[C@H](N)C(=O)N[C@H](C(=O)N[C@@H](CC(C)C)C(=O)N[C@@H](CO)C(=O)N[C@@H](CC(C)C)C(=O)N[C@@H](CC(=O)O)C(=O)N[C@@H](C(=O)N1CCC[C@H]1C(=O)N[C@H](C(=O)N[C@@H](CCCCN)C(=O)N[C@@H](CC(C)C)C(=O)N[C@@H](CCCCNC(=O)CC[C@H](NC(=O)CCCCCCCCCCCCCCC(=O)O)C(=O)O)C(=O)N[C@@H](CCC(N)=O)C(=O)N[C@@H](CCCCN)C(=O)N[C@@H](CC(C)C)C(=O)N[C@@H](CC(C)C)C(=O)N[C@@H](CCCCN)C(=O)N[C@@H](CCC(N)=O)C(=O)N[C@@H](CCC(=O)O)C(=O)N[C@@H](CCCNC(=N)N)C(=O)N[C@@H](CCC(N)=O)C(=O)N[C@@H](CCCNC(=N)N)C(=O)N[C@@H](CCCCN)C(=O)N[C@@H](CCC(=O)O)C(=O)N[C@@H](CCCNC(=N)N)C(=O)N[C@@H](CCC(=O)O)C(=O)N[C@@H](CCC(N)=O)C(=O)N[C@@H](C)C(=O)N[C@@H](CCC(=O)O)C(=O)N[C@@H](CCCCN)C(=O)N[C@@H](CC(N)=O)C(=O)N[C@H](C(=O)N[C@@H](CCCNC(=N)N)C(=O)N[C@H](C(=O)N[C@@H](CC(C)C)C(=O)N[C@@H](CCC(=O)O)C(=O)N[C@@H](CCCNC(=N)N)C(=O)N[C@H](C(N)=O)C(C)C)[C@@H](C)CC)C(C)C)[C@@H](C)O)C(C)C)C(C)C
On to B4, for which, in experiment [1], the “EC50 [nM] 0% HSA (cAMP, HTRF)” value is greater than 100 nM and the “Emax (%) (100% = Sauvagine at 100 nM)” value stood at 6.2%. The molecule also showed an EC50 [nM], 0% HSA (cAMP, HTRF) in experiment [2] of 7.38 nM.

B5: peptide of SEQ ID NO: 190 (peptide)
peptide: IVLSLD[dV]PIKLK([γGlu-C16 diacid])QILLKQERQKKQREQAEKNKQILEQV-NH2
modifications: N-terminus assumed
SMILES: CC[C@H](C)[C@H](N)C(=O)N[C@H](C(=O)N[C@@H](CC(C)C)C(=O)N[C@@H](CO)C(=O)N[C@@H](CC(C)C)C(=O)N[C@@H](CC(=O)O)C(=O)N[C@@H](C(=O)N1CCC[C@H]1C(=O)N[C@H](C(=O)N[C@@H](CCCCN)C(=O)N[C@@H](CC(C)C)C(=O)N[C@@H](CCCCNC(=O)CC[C@H](NC(=O)CCCCCCCCCCCCCCC(=O)O)C(=O)O)C(=O)N[C@@H](CCC(N)=O)C(=O)N[C@H](C(=O)N[C@@H](CC(C)C)C(=O)N[C@@H](CC(C)C)C(=O)N[C@@H](CCCCN)C(=O)N[C@@H](CCC(N)=O)C(=O)N[C@@H](CCC(=O)O)C(=O)N[C@@H](CCCNC(=N)N)C(=O)N[C@@H](CCC(N)=O)C(=O)N[C@@H](CCCCN)C(=O)N[C@@H](CCCCN)C(=O)N[C@@H](CCC(N)=O)C(=O)N[C@@H](CCCNC(=N)N)C(=O)N[C@@H](CCC(=O)O)C(=O)N[C@@H](CCC(N)=O)C(=O)N[C@@H](C)C(=O)N[C@@H](CCC(=O)O)C(=O)N[C@@H](CCCCN)C(=O)N[C@@H](CC(N)=O)C(=O)N[C@@H](CCCCN)C(=O)N[C@@H](CCC(N)=O)C(=O)N[C@H](C(=O)N[C@@H](CC(C)C)C(=O)N[C@@H](CCC(=O)O)C(=O)N[C@@H](CCC(N)=O)C(=O)N[C@H](C(N)=O)C(C)C)[C@@H](C)CC)[C@@H](C)CC)[C@@H](C)CC)C(C)C)C(C)C
B5: in experiment [3], the “CRF1/CRF2 ratio (of EC50)” value was greater than 500 and the “CRF1 EC50 (cAMP, HTRF)” value is greater than 100 nM.
